Experimental data published in the supplement of paper PMC9170038.

System: MS2 coat protein
Experiment: apparent KD of MS2 coat protein; designed switch direction (-1 OFF switch, 1 ON switch): -1; higher = weaker reporter binding
Summary of the method: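 An oligonucleotide input, 200 uM small-molecule ligand, or no input was present during titration of SNAP-549-labelled MS2 coat protein, which was doubled from 0.7 or 1.5 nM to 3 µM. Designed RNA switches had been transcribed on Illumina chips by stalled E. coli RNA polymerase. Apparent KD per design is the median over clusters of curves fitted to normalised cluster fluorescence.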

[1] = input ligand: microRNA oligo, concentration not stated
[2] = Eterna round: R95, input ligand: microRNA oligo, concentration not stated
[3] = Eterna round: R95, input ligand: FMN 200 uM
[4] = Eterna round: R95, input ligand: none

Sequence	apparent KD of MS2 coat protein (input ligand: FMN 200 uM) [nM]	apparent KD of MS2 coat protein (input ligand: none) [nM]	apparent KD of MS2 coat protein [1] [nM]	apparent KD of MS2 coat protein [2] [nM]	apparent KD of MS2 coat protein [3] [nM]	apparent KD of MS2 coat protein [4] [nM]
CGUGGAUGAAAGGAUAUUGAGGUCUGACUGCCACAAGAAGGUUCAACAUGAGGAUCACCCAUGUCUGAUCCUAA [Xeanorti] (Eterna round: R97, puzzle: Exclusion 6)	47.4	14.2	–	–	–	–
ACAACCAGAGGAUAUGCGCAUAGAUCAGACUUUGUUUCUGAACAUGAGGAUCACCCAUGUAGAAGGCUGUAACC [Ex2 #79] (Eterna round: R97, puzzle: Exclusion 2)	27.7	28.7	–	–	–	–
AGUAACUCAAGAGGAUAUCACAUGAGGAUCACCCAUGUAUAGCGCGCUGCGCUAGUCCUCGUAUUUGAGAAGGUUUGAUAAAUG [Riausve] (Eterna round: R96, puzzle: Exclusion NG 2)	13	15.7	10.8	–	–	–
UUAUUGGUAGUGAGGAUAUCGGAUAGAUAGAUAUUCGAGAAGGCACAUGAGGAUCACCCAUGUAAGAUUGGAAA [JR_BMEx4_Sub045] (Eterna round: R97, puzzle: Brourd's mod of Exclusion 4)	155	38.5	–	–	–	–
CCUCCACAUGAGGAUCACCCAUGUCAGGAUAUCGUGUGUUUUUUUUCGGUCUUGCGUGCGAGAAGGGACGUCUU (puzzle: Exclusion 1)	–	–	–	32.5	–	–
GGGCGUUAAGGAUAUGAUUGAAGGAACAUGAGGAUCACCCAUGUUCGGUGCCUAAUGUUCUCAGAAGGUGAUAGCU [Eternabot (L1) Solution 50] (Eterna round: R97, puzzle: Exclusion 5)	186	175	–	–	–	–
AAGUGACAUGAGGAUCACCCAUGUCAGGAUAUGCGCCGCUUACGCCUAAGUGUAGGGAGCAGAAGGGACAUAGA [EX1 B.2] (Eterna round: R97, puzzle: Exclusion 1)	30.5	25.7	–	–	–	–
UUCAGGCGAGGAUAUCCAUGAAGUAACAUGAGGAUCACCCAUGUUCGCUGUUACUCCGAAGGAGAAGGUGCUCUGG [Eternabot (L2) Solution 25] (Eterna round: R97, puzzle: Exclusion 5)	196	100	–	–	–	–
AUAAUGUCAGGAUAUCGAGACUACUGCUUCGGCAGUAGUCUCGAGAAGGGACAUGAGGAUCACCCAUGUGAUCA [E4/1-A1] (Eterna round: R97, puzzle: Exclusion 4)	41.8	40.8	–	–	–	–
CCCGGGUCAGGAUAUCACUUAAGCGCAGUGAGCGUCUGAGAUGAGAAGGGACAUGAGGAUCACCCAUGUGUGGC [Eternabot (L2) Solution 66] (Eterna round: R97, puzzle: Exclusion 4)	456	93.7	–	–	–	–
AAGAAGAAACAAGCUUUUUGCUCGUCUUAUAGUGACGCAACAUGAGGAUCACCCAUGUAUAGGAUGAGGGUGGAUAG [JR_SV3TOV2_Sub046] (puzzle: Sensor v3, turn-off variant 2)	–	–	–	324	76.9	72
GUACCAAUUGUAGGAUAUGGAUCCGAUUAGGAUCCAGAAGGACAUGAGGAUCACCCAUGUACAUGAGGAUCACCCAUUAGGUAC [Fiskers ExNg1 - 12] (Eterna round: R96, puzzle: Exclusion NG 1)	53.2	46.1	30.9	–	–	–
AAAACACAUGAGGAUCACCCAUGUGAGGAUAUGUUGAUUUUGAUCAAAGUUAAGAUUAACAGAAGGCACAUAAA [JR_Exclusion1_Sub018] (puzzle: Exclusion 1)	–	–	–	36.1	34.5	35.2
ACAAGCUUUUAGAUUCUUAACAUGAGGAUCACCCAUGUGCUCGUCUUAUUGGGCCCGGGCCCGCCGGGCCCGGGCCC (Eterna round: R97, puzzle: Sensor, turn-off variant 1)	39.2	42.6	–	–	–	–
CUGCUCCGUGUAGGAUAUCGCCGCACCACCCGGCGAGAAGGACAUGAGGAUCACCCAUGUAUGUUAUUAUCACGUGUGGCGCGA [Design 41] (Eterna round: R96, puzzle: Exclusion NG 1)	16.4	17.1	13.9	–	–	–
AACCCUGAUGACAAAUUACAUGAGGAUCACCCAUGUGCCUCACAGGAUAUCCCAGCACGUCGCUAGGAGAAGGGUGACGCGCCA [Tienen] (Eterna round: R96, puzzle: Exclusion NG 3)	37.5	30	25.1	–	–	–
UAUUAACAAGUAAGAUCCUACAUGAGGAUCACCCAUGUGCUCGUCUUAUAAGGUACUGUGACGAAAGUCACGGUACC [Sensor 3, v1 - 72] (puzzle: Sensor v3, turn-off variant 1)	–	–	–	46.7	37.6	39.4

Sequence	apparent KD of MS2 coat protein (input ligand: FMN 200 uM) [nM]	apparent KD of MS2 coat protein (input ligand: none) [nM]	apparent KD of MS2 coat protein [1] [nM]	apparent KD of MS2 coat protein [2] [nM]	apparent KD of MS2 coat protein [3] [nM]	apparent KD of MS2 coat protein [4] [nM]
GCUUGGCGAGGAUAUACAUGAGGAUCACCCAUGUGAGAGAAGAAAGUGAGGAAGAAAAGUAGAAGGCGCUGAGG [Mat - Exclusion 3 - Mod of Salish D61] (puzzle: Exclusion 3)	–	–	–	56.4	372	63
AGUCGGAAGACAAAAGGAAACAUGAGGAUCACCCAUGUAAAGGGUGAAAACAAGCCACCCGCUCGUCUUAAAGAAAA [Mat - Sensor v2- JL mod - D44] (Eterna round: R96, puzzle: Sensor v2, turn-off variant)	40.7	46.1	144	–	–	–
AAUCGAUCGCCGUACGCACACAUGAGGAUCACCCAUGUAGCUGAGGAUAUCCACCCAUAACGGUCGGAGAAGGCGGGACUGGGA [Eraananbi] (Eterna round: R96, puzzle: Exclusion NG 3)	30.8	19.1	11.3	–	–	–
GGUGGACAUGAGGAUCACCCAUGUGAGGAUAUCGGCUGGCUAGCGGCUGACGGCUGCUCGAGAAGGCGCAUUGU [Exclusion 1 V85] (puzzle: Exclusion 1)	–	–	–	50.5	–	–
AUAUUAACAUAGGAUAUCGAAUUUAUCAUUUAACGAGAAGGAUGAACAUGAGGAUCACCCAUGUGGUAUCAUGG [Mat - Exclusion 6 - JL Mod - D1] (puzzle: Exclusion 6)	–	–	–	144	171	249
AGUACGAUGCGUGCUGACAUGCGUCGUGCAGCAGGUGAUACAUGAGGAUCACCCAUGUCCUCAUUUGCUCGUCUUGA [Mat - Sensor v3 - Turn-off var 2 - D19] (puzzle: Sensor v3, turn-off variant 2)	–	–	–	499	28.5	28.4
AAGAAGCAAGGAUAUACAGAGGAGAGGAAAGCAAGAGGAGGACAUGAGGAUCACCCAUGUAGAAGGUGCAGAGA [JR_Exclu2_Sub019] (puzzle: Exclusion 2)	–	–	–	68.8	67.4	63.5
CAUAGUUACUCAGGAUAUCAUACAUGAGGAUCACCCAUGUAAUAAAUGAGAAUUUCGAAUGUAUAUGAGAAGGGAGAAAUCUAC [Ostracism 59 - Jieux - Exclusion NG 2] (Eterna round: R96, puzzle: Exclusion NG 2)	69.2	22.6	13.4	–	–	–
AACUUACAUGAGGAUCACCCAUGUCAGGAUAUCGAAAUUGGCCUGCAAUUACAGGCGACGAGAAGGGACGUUUU [EX1 B.24] (Eterna round: R97, puzzle: Exclusion 1)	29.3	16.9	–	–	–	–
AUCAUGGGAGGAUAUCACCUAUGUUACAUGAGGAUCACCCAUGUGAGACUAAAUGACUGCUGAGAAGGCUCAACGC [Eternabot (Original) Solution 25] (Eterna round: R97, puzzle: Exclusion 5)	205	234	–	–	–	–
GCACGGAGUGUAGGAUAUUAGUGCGAUUAGCACUGAGAAGGACAUGAGGAUCACCCAUGUUCCUCAUAAAUUAGCCUUCCGUGC [Eli exng1 - 037] (Eterna round: R96, puzzle: Exclusion NG 1)	27.4	27	21	–	–	–
GAAAAGGUAGGAUAUACGAAAAAAAAGGGUAGAAAGAAAACACAUGAGGAUCACCCAUGUAGAAGGACCAAAAG [salish99_ex2_r3_017] (puzzle: Exclusion 2)	–	–	–	27.3	66.1	20.7
UCCUUACUGGUCAGGAUAUACAGUCGCGGGUGGGUGUAGAAGGGACAUGAGGAUCACCCAUGUACGUUACAUCC [alecazam54h] (Eterna round: R97, puzzle: Brourd's mod of Exclusion 4)	19.7	19.9	–	–	–	–
UAUUAACAAGCGAGAUCCUACAUGAGGAUCACCCAUGUGCUCGUCUUAUAAGGUACUGUGACGAAAGUCACGGUACC [Eli 91 v37] (Eterna round: R97, puzzle: Sensor, turn-off variant 1)	19.5	21	–	–	–	–
UUUUAACAUGAGGAUCACCCAUGUGAGGAUAUCGAAAUUUAUAUUAAUAUUAAUUUUUCGAGAAGGCACAUUUU [JMF 33] (puzzle: Exclusion 1)	–	–	–	143	–	–
GUGUAGAUAGGAUAUACAUGAGGAUCACCCAUGUGAAUAAGAUAGAAUAAGAUAAAGUGUAGAAGGGUUAGUGU [Excluse me!!! 19 - Jieux - Exclusion 3] (puzzle: Exclusion 3)	–	–	–	30.2	34.3	39.9
